This assay addresses prokineticin receptor(s) of guinea pig ileal membrane / ileal smooth muscle (guinea pig). Briefly: cell-based or functional assay.

The results in this text go back to EP1506971A1 (The Regents of the University of California, dated 2005).

B1: chimeric prokineticin 21 (exons 1 and 2 of prokineticin 2, exon 3 of prokineticin 1) (ligand)
chain: AVITGACDKDSQCGGGMCCAVSIWVKSIRICTPMGKLGDSCHPLTRKVPFFRKRKHHTCPCLPNLLCSRFPDGRYRCSMDLKNINF
As to B1, the “EC50 of ileal smooth muscle contraction, relative to prokineticin 1 or prokineticin 2” value was approximately 8 fold.
